Experimental data reported in patent publication US20210047418A1 (VESTLANDETS INNOVASJONSSELSKAP, published 2021).

What was measured:
human integrin α11-EGFP = molecular target: T1, human integrin α11-EGFP (human, UniProt Q9UKX5 23-1188); assay: Western blot on C2C12-hu α11-EGFP lysate (FIG. 1D)
T1 construct: whole, on cells; Fusion of about 180 kDa by the legend; In the Western blot it stood as denatured protein from cell lysate; also called hu α11-EGFP; C2C12-hu α11-EGFP; not shown: EGFP tag
T1 sequence (looked up): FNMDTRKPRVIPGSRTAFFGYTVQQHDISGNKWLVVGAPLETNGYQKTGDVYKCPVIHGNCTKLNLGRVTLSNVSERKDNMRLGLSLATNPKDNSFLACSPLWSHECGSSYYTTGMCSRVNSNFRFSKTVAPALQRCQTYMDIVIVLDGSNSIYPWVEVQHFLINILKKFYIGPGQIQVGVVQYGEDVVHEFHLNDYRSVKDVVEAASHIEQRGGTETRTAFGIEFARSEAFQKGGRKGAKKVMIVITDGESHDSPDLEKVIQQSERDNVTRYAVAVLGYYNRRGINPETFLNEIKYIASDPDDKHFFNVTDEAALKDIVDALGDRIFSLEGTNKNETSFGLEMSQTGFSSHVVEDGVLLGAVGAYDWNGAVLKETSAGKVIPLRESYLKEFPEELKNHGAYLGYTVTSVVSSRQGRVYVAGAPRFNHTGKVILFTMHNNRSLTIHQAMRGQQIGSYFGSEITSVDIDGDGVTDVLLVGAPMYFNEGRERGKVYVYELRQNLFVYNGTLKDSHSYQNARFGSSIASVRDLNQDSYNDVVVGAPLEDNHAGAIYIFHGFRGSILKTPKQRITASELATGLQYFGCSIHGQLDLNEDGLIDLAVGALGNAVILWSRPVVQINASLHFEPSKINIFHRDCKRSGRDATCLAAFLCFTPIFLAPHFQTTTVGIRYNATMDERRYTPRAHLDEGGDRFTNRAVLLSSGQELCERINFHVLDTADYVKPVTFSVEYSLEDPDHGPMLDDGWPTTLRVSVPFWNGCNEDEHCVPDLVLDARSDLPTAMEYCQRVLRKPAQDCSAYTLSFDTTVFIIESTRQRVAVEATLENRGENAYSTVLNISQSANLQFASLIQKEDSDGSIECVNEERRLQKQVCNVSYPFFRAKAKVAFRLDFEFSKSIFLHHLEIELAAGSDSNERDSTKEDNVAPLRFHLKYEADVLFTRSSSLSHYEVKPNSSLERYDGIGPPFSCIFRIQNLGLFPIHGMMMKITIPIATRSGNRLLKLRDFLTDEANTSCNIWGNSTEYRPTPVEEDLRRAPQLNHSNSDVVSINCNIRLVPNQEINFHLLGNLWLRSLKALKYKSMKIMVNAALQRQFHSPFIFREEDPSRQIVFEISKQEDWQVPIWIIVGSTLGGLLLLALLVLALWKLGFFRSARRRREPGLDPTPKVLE

[1] = molecular target: T2, human integrin α11 subunit (human, UniProt Q9UKX5 23-1188); assay: immunoprecipitation from C2C12-α11 cell lysate, Western blot detection with the polyclonal α11 antibody (FIG. 1C)
T2 construct: whole, on cells; In C2C12-α11 cells and their lysates the human α11 chain is present as α11β1 heterodimer (the legend says 'Immunoprecipitation of integrin α11β1'); the β1 partner in the mouse cells is not described; In the staining and blot experiments cells were methanol fixed, lysed or the tissue was formalin fixed and paraffin embedded; also called alpha-11 integrin subunit; integrin chain α11
T2 sequence (looked up): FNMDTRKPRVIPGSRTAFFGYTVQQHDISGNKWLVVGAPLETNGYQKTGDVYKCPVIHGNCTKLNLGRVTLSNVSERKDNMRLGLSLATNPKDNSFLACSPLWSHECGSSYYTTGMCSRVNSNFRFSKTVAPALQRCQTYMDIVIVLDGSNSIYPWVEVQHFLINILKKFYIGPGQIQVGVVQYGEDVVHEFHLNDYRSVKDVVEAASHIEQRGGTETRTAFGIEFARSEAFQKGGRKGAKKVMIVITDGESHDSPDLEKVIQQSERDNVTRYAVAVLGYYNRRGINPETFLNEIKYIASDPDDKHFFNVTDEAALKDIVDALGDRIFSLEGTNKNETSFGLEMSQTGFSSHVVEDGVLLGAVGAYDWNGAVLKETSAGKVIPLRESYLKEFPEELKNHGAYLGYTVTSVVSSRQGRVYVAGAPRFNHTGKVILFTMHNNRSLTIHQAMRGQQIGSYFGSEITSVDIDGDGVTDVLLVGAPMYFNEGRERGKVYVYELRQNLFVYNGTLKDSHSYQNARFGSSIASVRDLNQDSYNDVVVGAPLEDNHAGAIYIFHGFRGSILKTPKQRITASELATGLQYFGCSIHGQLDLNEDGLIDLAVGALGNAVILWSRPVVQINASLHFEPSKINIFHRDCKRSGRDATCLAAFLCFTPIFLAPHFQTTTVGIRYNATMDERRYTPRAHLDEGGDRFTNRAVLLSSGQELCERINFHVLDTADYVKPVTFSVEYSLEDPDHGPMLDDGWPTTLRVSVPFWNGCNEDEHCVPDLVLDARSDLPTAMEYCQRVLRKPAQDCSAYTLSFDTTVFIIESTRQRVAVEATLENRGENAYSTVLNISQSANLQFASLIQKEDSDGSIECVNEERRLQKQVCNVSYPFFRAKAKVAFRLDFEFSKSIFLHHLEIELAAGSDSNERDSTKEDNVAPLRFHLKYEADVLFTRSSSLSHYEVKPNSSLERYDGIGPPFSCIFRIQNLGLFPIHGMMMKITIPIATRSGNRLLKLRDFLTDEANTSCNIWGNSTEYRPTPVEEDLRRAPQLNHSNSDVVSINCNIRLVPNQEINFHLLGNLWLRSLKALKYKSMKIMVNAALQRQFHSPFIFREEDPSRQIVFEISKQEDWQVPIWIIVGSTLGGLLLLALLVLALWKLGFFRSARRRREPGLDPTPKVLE
Procedure: FIG. 1. Immunological characterization of 210F4B6A4 mAb [0019] A-B. C2C12 mouse myoblast cells expressing human integrin α11-EGFP or WT (wildtype) C2C12 cells were stained with 210F4B6A4 mAb for 1 hour at 4° C. Cells were then washed and stained with goat anti-mouse R-Phycoerythrin IgG. Samples were analysed by flow cytometry using Intellicyt iQue and fluorescence intensity was measured. [0020] C. Immunoprecipitation (IP) of integrin α11β1 with the 210F4B6A4 mAb and the polyclonal α11 antibody (α11 pAb)[5]. Protein bands of integrin chain α11 at the expected size after immunoprecipitation using α11 antibodies followed by Western blotting and detection using the polyclonal α11 antibody. [0021] D. Western-blotting (WB) using the α11 210F4B6A4 mAb on C2C12-hu α11-EGFP lysate, shown is the protein band of expected size of aα11-EGFP (180 kDa). [0022] E. C2C12 mouse myoblast cells expressing human integrin α11 were allowed to attach on collagen I-cocated coverslips for 2 hours, cell were then fixed with methanol and incubated with 210F4B6A4 mAb or control IgG. Bound antibody was detected using goat anti-mouse Alexa Fluor 594. Integrin α11 staining in cell focal adhesions is indicated by white arrowheads. […]

- binding result (human integrin α11-EGFP): binds
- binding result [1]: binds
B1: monoclonal mouse anti-human integrin alpha-11 antibody clone 210 F4B6A4 produced by the hybridoma deposited as DSM ACC3320 (antibody, V domains shown)
VH: EVQLQQSGAELVRPGASVKVSCTASGFNIKDDYIHWMRRRPAQGLEWIGWIDPENGDTEYASNFQGKATTTVDVSSNTAYLQLSRLTSEDTAIYYCSREYAYWGQGTLVTVSA
VL: DVVMTQTPLSLPVSLGDQASISCRSSQSLLYSNGNTYLQWYLQKPGQSPKLLIYRASNRFSGVPDRFSGSGSGTDFTLKISRVEAEDLGVYFCSQSTHVPWTFGGGTKLEIK
notes: Mouse monoclonal antibody from hybridoma (used partly as hybridoma supernatant); also called 210F4B6A4 mAb; F210F4B6A4
